Molecular target: GOLPH3 (endogenous) (human (endogenous in HeLa)) (UniProt Q9H4A6)
Experiment: co-IP
Conditions: remark: other sources report otherwise

Sequence of GOLPH3 (endogenous) (human (endogenous in HeLa)) (Q9H4A6 whole entry): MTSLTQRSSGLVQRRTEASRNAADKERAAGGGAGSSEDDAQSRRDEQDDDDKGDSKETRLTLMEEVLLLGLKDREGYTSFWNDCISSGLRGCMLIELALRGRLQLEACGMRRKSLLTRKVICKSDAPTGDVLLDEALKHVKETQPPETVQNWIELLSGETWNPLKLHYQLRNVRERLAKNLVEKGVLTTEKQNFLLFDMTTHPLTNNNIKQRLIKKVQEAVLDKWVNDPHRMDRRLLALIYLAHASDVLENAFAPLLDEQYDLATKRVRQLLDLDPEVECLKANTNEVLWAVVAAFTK

fold increase in association after CPT versus DMSO control: 3.7 fold
Substance: MYO18A (endogenous), Q92614 1-2054
